Assay results from the supplement of paper PMC10567573.

B1: TRIM35 (parent)
chain: PTCPVCKDRASPADLRTNHTLNNL

Variants of: B1
Assay: protein stability index of a GFP-peptide fusion (GPS, HEK-293T) (PSI 1-6); higher = more stable
Conditions: c terminus: a fixed tail appended
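Note: lentivirally expressed fusions sorted by FACS into six bins by GFP to DsRed ratio, PSI derived from sequencing read proportions per bin multiplied by bin number.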

Protein stability index, by site and new letter:
T20: Y 2.74 | A 3.11 | S 2.7 | E 3.92 | F 2.59 | D 3.76 | P 3.23 | N 3 | Q 3.06 | H 3.03 | K 2.81 | I 2.76 | L 2.77
P12: I 2.47 | S 2.95 | D 3.5 | Y 2.69 | F 2.52 | W 2.03 | A 2.46 | N 2.89 | V 2.85 | K 2.83 | M 2.35 | L 2.1 | H 2.61 | C 2.58 | T 2.96 | E 3.38
N23: V 3.06 | L 2.28 | Q 3.1 | F 2.27 | C 4.21 | E 3.48 | R 2.37 | Y 1.88 | K 3.12 | T 2.58 | I 2.1 | A 2.73 | M 2.47 | P 2.76 | H 3.47
C6: G 4.12 | M 4.22 | I 3.59 | V 4.22 | Y 4.1 | Q 4.28 | H 4.11 | F 3.84 | D 4.74 | W 3.21 | E 4.64
C3: T 4.36 | S 4.55 | E 4.06 | P 4.02 | R 4.46 | A 4.44 | N 4.05 | I 4.38 | M 4.08 | K 4 | V 4.1 | Q 4.24
P4: E 3.42 | Q 3.28 | R 3.38 | T 3.3 | G 2.71 | K 3.21 | W 2.58 | Y 3.01 | H 3.03 | I 2.72 | V 3.19 | L 3.32 | S 2.98 | C 2.79 | M 3.16
L21: M 3.18 | R 2.55 | V 2.96 | T 3.07 | K 3.13 | H 3.66 | Q 3.52 | A 3.22 | E 3.59 | Y 2.76 | D 3.99 | I 2.61 | N 3.27 | F 2.62 | P 3.39 | W 2.18
H19: C 2.95 | T 2.81 | I 2.5 | V 3.04 | K 3.21 | F 2.4 | P 3.19 | D 3.61 | W 2.86 | N 3.09 | L 3.02 | Q 3.28 | G 3.33
T17: S 3.13 | C 4.21 | P 3.34 | E 3.29 | G 3.18 | I 3.07 | M 2.67 | A 2.75 | Y 2.6 | D 3.36 | W 2.35 | L 2.58 | R 3.1
P1: D 3.2 | F 2.11 | T 2.99 | Q 2.7 | W 1.6 | N 2.41 | G 2.17 | S 2.8 | M 2.62 | H 2.95 | I 2.63 | E 2.75 | A 2.64 | V 2.85
R16: I 2.33 | W 2.01 | T 2.95 | D 3.91 | Y 2.42 | E 4.09 | G 2.63 | S 3.54
V5: W 2.78 | M 2.76 | C 3.15 | Q 3.38 | A 3.33 | K 3.59 | Y 1.91 | L 2.47 | H 2.36 | I 2.69 | E 3.65 | R 2.87 | P 4.71 | T 3.19 | N 3.3
N18: P 2.83 | L 2.6 | M 2.64 | I 2.31 | F 2.53 | H 2.94 | D 3.4 | Y 2.76 | W 2.16 | S 2.81 | A 2.67 | K 2.48 | C 3.6 | E 3.75
T2: F 2.33 | I 2.71 | D 3.68 | H 2.82 | V 3.82 | S 3.24 | R 3.12 | P 3.58 | M 3.14 | C 2.9 | A 3.67 | Y 2.3 | G 2.95 | Q 3.27 | W 2.2 | E 3.47 | K 3.52
L15: C 4.23 | N 3.96 | E 3.86 | Y 2.83 | S 3.57 | V 3.67 | K 3.21 | W 2.13 | M 2.9 | T 3.57 | D 3.73 | Q 3.78
N22: F 2.13 | W 2.02 | T 2.76 | V 2.21 | D 4.1 | C 4.13 | E 3.73 | G 3.39 | L 2.56 | A 3.06 | I 2.65 | H 2.9 | K 2.87 | M 2.67
S11: K 3.32 | W 2.51 | F 2.55 | M 3.1 | V 3.1 | A 3.3 | D 3.44 | Q 3.07 | G 2.94 | C 3.74 | N 2.86 | H 2.92 | P 3.19 | T 3.04 | R 2.72
D14: V 2.54 | A 2.5 | G 2.48 | Y 2.24 | Q 3.18 | F 2.21 | I 2.45 | E 3.12 | R 2.94 | C 3.9 | W 2.6 | N 2.5 | M 2.2 | P 2.98 | L 2.2 | H 2.97
L24: T 3.62 | Y 2.76 | F 3.32 | Q 3.36 | P 3.83 | W 3 | N 3.91 | G 3.83 | V 3.56 | C 3.94 | H 3.58 | I 3.5 | E 4.03 | S 3.79
R9: N 3.12 | Y 3.08 | H 3.66 | G 3.66 | K 3.16 | S 3.5 | L 3.07 | D 3.99 | W 3.11 | T 3.5 | P 3.71 | C 2.97 | I 2.96 | Q 3.55 | M 2.97
D8: R 2.02 | T 2.67 | V 2.39 | G 3.11 | C 2.09 | P 2.83 | E 2.75 | H 2.61 | F 1.71 | I 2.65 | M 1.92 | W 2.32 | Q 3 | A 1.94 | N 2.65 | K 2.31 | Y 2.02
A13: K 3.65 | R 3.2 | I 2.53 | P 3.29 | S 2.87 | H 3.1 | M 2.58 | D 3.13 | G 3.23 | C 3.69 | N 3.27 | E 3.86 | Y 2.59
A10: P 3.17 | H 3.23 | M 2.72 | G 2.88 | T 2.96 | L 1.96 | S 2.86 | C 2.03 | N 2.78 | E 3.33 | F 2.96 | I 3.05
K7: A 3.19 | T 2.72 | M 2.87 | C 2.68 | G 2.72 | Q 3.37 | E 3.88 | D 3.65 | H 3.13 | I 3.18 | L 2.91 | S 2.68 | N 3.13 | F 2.94
